In the supplement of paper PMC10724198:
± gives the standard deviation of the averaged measurements.

System: Saccharomyces cerevisiae
Test: protein stability index of tFT-peptide fusion (C-terminal peptide) (PSI (0-1 scale)); higher = more stable (slower turnover)
Details: genetic background: wild type; temperature: 30 C
Protocol: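 Multiplexed protein stability (MPS) profiling in S. cerevisiae. Random 12-aa peptides (tFT-X12 library) are fused to the C-terminus of a sfGFP-mCherry tandem fluorescent timer, after mCherry and a GGGS linker. Cells are FACS-sorted into 8 mCherry/sfGFP bins and deep-sequenced. The protein stability index (PSI) is the read-weighted bin average, scaled from 0 (unstable) to 1 (stable). Only peptides with >10 reads are reported; cells were grown at 30 °C in SC-His with glucose.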
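Note: PSI is a weighted mean of sequencing reads over stability bins, variants kept only with over 10 reads, mCherry proximal and sfGFP distal, peptide attached via GGGS linker.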

Sequence	protein stability index
VFVPPPPSPSSL	0.683 ± 0.01
CSSARVLPLPVP	0.661 ± 0.041
EFRCRGPWGLEE	0.761 ± 0.17
CSDRRVAGGRGG	0.676 ± 0.073
PGPGNGHTKRTR	0.654 ± 0.034
RPSPPPLRPFVL	0.576 ± 0.025
LFLFPVCFTNDL	0.661 ± 0.025
YEGVNLSWYRIR	0.676 ± 0.045
DRTDTNVKWRKK	0.696 ± 0.0077
PLLPPALPASPF	0.6972 ± 0.0019
LVVGNQFIRRSD	0.685 ± 0.023
SFPHLARRLLSP	0.673 ± 0.06
SRTSRGPPFSSS	0.688 ± 0.043
VLGFLGWPCSSS	0.76 ± 0.0078
WVSFVFCSLLGG	0.588 ± 0.018
VFLLFFFPCSSR	0.528 ± 0.013
SRGSTGERGRGK	0.669 ± 0.027
WLFAFLCSCFCV	0.71 ± 0.093
PVNQRPDGGNQD	0.764 ± 0.016
GFVGVGEEEIFG	0.7217 ± 0.006
LPTLPPPTPYAL	0.652 ± 0.044
WAGLAQPKLVLH	0.659 ± 0.024
GGGSHASERAAR	0.723 ± 0.022
CCDWLFCVGVAG	0.558 ± 0.0079
GGRRVWAGRTGV	0.734 ± 0.077

Sequence	protein stability index
LRRSRGTVWRWY	0.5535 ± 0.0032
ILLFLRCFSGFF	0.5619 ± 0.0046
FSPSPPPPPFPL	0.659 ± 0.024
SVAWGGGVVEWG	0.661 ± 0.11
LTPEPPRPPTPY	0.699 ± 0.033
IQRLGTKNTNRI	0.647 ± 0.039
ALASPPPTPSLV	0.638 ± 0.0068
PSPPPLPPLPPP	0.764 ± 0.12
ETKFLVDRKTDI	0.67 ± 0.012
PATRFSPPSSLS	0.745 ± 0.028
RVQFYVGSPALR	0.69684 ± 0.00031
PLLIPPPPTYPP	0.63 ± 0.038
GRGLSSLCRRFS	0.691 ± 0.044
AIGPLTCFFAFL	0.695 ± 0.079
SLLAVITSFPLR	0.687 ± 0.012
RWAVYDKNRETP	0.657 ± 0.05
GLARSICRNYGL	0.706 ± 0.014
FLLPAGLWSSCC	0.66 ± 0.043
NLSLPSPPLTTN	0.731 ± 0.0082
LLPFCPPCLRSL	0.648 ± 0.018
ETHHITHHQWKV	0.683 ± 0.05
FPWPDLPSLLPQ	0.8 ± 0.14
RDPSIVDHTVVT	0.735 ± 0.041
SFVRTLSCISIF	0.513 ± 0.053
EGAGRRYRCGWG	0.698 ± 0.049

Sequence	protein stability index
CYTGMIRSTPLS	0.702 ± 0.064
SLKPHTCPPRPA	0.57 ± 0.15
DSLWACVGSSAL	0.771 ± 0.024
GGGCQVSPPSLL	0.7076 ± 0.0024
PAPSLPPPRLAP	0.653 ± 0.026
DIKKLNKKAKIK	0.777 ± 0.15
GIGFHSREIGER	0.66 ± 0.055
RYAGGHRIGFLI	0.649 ± 0.025
AVGGWRAGGGGG	0.731 ± 0.04
LWGGAGAGYWVG	0.727 ± 0.033
SLLPLHPPLTLP	0.674 ± 0.19
RGLSCAAYFSGA	0.727 ± 0.028
IRLLNKAACVTM	0.742 ± 0.04
EKNDMKKKKNRQ	0.713 ± 0.035
GGRGRGMWGIFG	0.681 ± 0.0096
LHSRKSDFSVIA	0.656 ± 0.046
WFDWLAIAFYLT	0.526 ± 0.014
RKDNRRIMIKKR	0.648 ± 0.015
CPAAWSLPCRPP	0.6599 ± 0.0018
GSRSSDTGGRLM	0.6819 ± 0.00074
LTLPLFPPPCSV	0.648 ± 0.018
MSSTLCMLPFSV	0.771 ± 0.012
FFWGRFCLGLWS	0.568 ± 0.067
PPPPPPPPSLSP	0.591 ± 0.047
PVLMTHPYFASS	0.725 ± 0.0083

Sequence	protein stability index
HAPFPPLLVSSL	0.625 ± 0.022
GSERGGRSRGRG	0.665 ± 0.0059
PPRQSHHPNPQH	0.682 ± 0.038
LSIGGDLLFLRE	0.716 ± 0.067
TQEQVQKKLLKS	0.665 ± 0.015
KDEVESGRGLIS	0.633 ± 0.044
VNPWLRCSFRFW	0.6881 ± 0.0066
YFPFPPPLLSPP	0.766 ± 0.02
VYKRNILHLASE	0.681 ± 0.13
GEFSINDGSGWT	0.7106 ± 0.0045
LLSFLLFFVPGS	0.576 ± 0.0013
RAARGQQGGPVA	0.651 ± 0.041
PTVGGGLDGVGR	0.669 ± 0.063
FPPLFPLSTFLL	0.56 ± 0.04
PPPPTLPPPLVP	0.726 ± 0.12
PVPPFDGLVPAL	0.728 ± 0.089
TAGIIINCPIYL	0.596 ± 0.038
CVDSRRCCSCFC	0.59 ± 0.074
VGGIGKGSWRWM	0.6466 ± 0.0034
SIFRVKQGKTNK	0.5732 ± 0.0025
WVGYAWDGKFDL	0.736 ± 0.11
WLIKKIKTKQTR	0.758 ± 0.074
LRGCGSGAGWFL	0.667 ± 0.028
